Measured values published in publication PMC11601148, “Effects of proline substitution/inclusion on the nanostructure of a self-assembling β-sheet-forming peptide†” (RSC Advances, 2024).

B1: FEFKFEFK (peptide)
peptide: FEFKFEFK
notes: also called F8; source: synthetic peptide, bought: Biomatik LLC (HCl salt, >90% purity)
B2: FEFEPKFKF (peptide)
peptide: FEFEPKFKF
notes: KPE with the polar residues shuffled: glutamic acids on one side of the proline, lysines on the other; source: synthetic peptide, bought: Biomatik LLC (HCl salt, >90% purity)
B3: FEFKPEFKF (peptide)
peptide: FEFKPEFKF
notes: FP with one more phenylalanine at the C-terminal end; also called KEP; source: synthetic peptide, bought: Biomatik LLC (HCl salt, >90% purity)

Assays:
[1] = target: the molecule itself; assay: ITC; NaOH (0.0025, 0.0125, 0.025 M) titrated into peptide at 0.1, 0.5 and 1 mg/mL in water, 25 °C; the energy change on deprotonation is read as a sign of self-assembly, no binding constant is fitted
[2] = target: the molecule itself; assay: SAXS + WAXS; peptide samples at 5 and 10 mg/mL in quartz capillaries, beamline I22 at Diamond Light Source, water as background

Row | Protein | binding result [1] | binding result [2]
1 | B1 | binds | –
2 | B2 | – | binds
3 | B3 | binds | –
